Here are results for two molecules from patent publication US20250135046A1, “CHOLECYSTOKININ B RECEPTOR-TARGETED COMPLEX AND A CONTRAST AGENT THEREOF” (National Atomic Research Institute, priority 2023, published 2025).

Structures are written as SMILES. Square brackets hold non-standard residues; d marks the D form. Peptide text beside a SMILES is read from it. * marks the point of attachment. DOTA = O=C(O)CN1CCN(CC(=O)O)CCN(CC(=O)*)CCN(CC(=O)O)CC1; Butanoyl(4-(4-MePh)) = Cc1ccc(CCCC(=O)*)cc1; 4Amb = NCc1ccc(C(=O)O)cc1; Nle = CCCC[C@H](N)C(=O)O; Ahx = NCCCCCC(=O)O

The subject of the series is tumor site where the cholecystokinin B receptor is overexpressed. Details: species or system nude mice. The conditions noted are these: mouse, in vivo. As to the method: Establishment of tumor animal model: Five-to six-week-old male experimental nude mice are purchased from the National Laboratory Animal Center (NLAC, TAIWAN) and bred in the animal facility. All animal experiment procedures are performed in accordance with the protocols approved by Institutional Animal Care and Use Committee (IACUC, TAIWAN). The experimental mice are kept at a temperature of 21-23° C., and a 12-hour light-dark cycle are used as the basis for the animal's physiological cycle. A431-CCK2R^(−) and A431-CCK2R^(+) cells (2×10^6 cells) are inoculated in the left and right hind limbs of the mice. After the tumors growing to 200-300 mm^3, the radioactive labeled complexes Lu-177-D1, Lu-177-D2, and Lu-177-D3 are used as radiotherapy drugs and start the treatments. The cholecystokinin B receptor-targeted radiotherapy drugs […], Lu-177-D2, and Lu-177-D3 are administrated to the mice respectively by tail vein injection. After different time periods of administration, such as 4, 24, and 48 hours, the coronal sections of three tumor mice are obtained (Refer to FIG. 3). By showing the comparison of NanoSPECT and CT fusion images at different time points, the accumulation of these radiotherapy drugs in the tumor tissue can be observed. Then measure and record the tumor size twice a week. […]

Turning to `CCCC[C@H](NC(=O)[C@H](Cc1c[nH]c2ccccc12)NC(=O)CNC(=O)[C@H](Cc1ccc(O)cc1)NC(=O)[C@H](C)NC(=O)[C@H](CCC(=O)O)NC(=O)[C@H](CCC(=O)O)NC(=O)[C@H](CCC(=O)O)NC(=O)[C@H](CCC(=O)O)NC(=O)[C@H](CCC(=O)O)NC(=O)[C@H](CCC(=O)O)NC(=O)c1ccc(CNC(=O)[C@H](CCCCNC(=O)CCCc2ccc(C)cc2)NC(=O)CN2CCN(CC(=O)O)CCN(CC(=O)O)CCN(CC(=O)O)CC2)cc1)C(=O)N[C@@H](CC(=O)O)C(=O)N[C@@H](Cc1ccccc1)C(N)=O` [Lu-177-D3, metal not drawn] ({DOTA}-K(Butanoyl(4-(4-MePh)))[4Amb]EEEEEEAYGW[Nle]DF-NH2), the “duration of drug accumulation in the tumor site” value is on record as “at least 48 hours”. Next, `CCCC[C@H](NC(=O)[C@H](Cc1c[nH]c2ccccc12)NC(=O)CNC(=O)[C@H](Cc1ccc(O)cc1)NC(=O)[C@H](C)NC(=O)[C@H](CCC(=O)O)NC(=O)[C@H](CCC(=O)O)NC(=O)[C@H](CCC(=O)O)NC(=O)[C@H](CCC(=O)O)NC(=O)[C@H](CCC(=O)O)NC(=O)[C@H](CCC(=O)O)NC(=O)CCCCCNC(=O)[C@H](CCCCNC(=O)CCCc1ccc(C)cc1)NC(=O)CN1CCN(CC(=O)O)CCN(CC(=O)O)CCN(CC(=O)O)CC1)C(=O)N[C@@H](CC(=O)O)C(=O)N[C@@H](Cc1ccccc1)C(N)=O` [Lu-177-D1, metal not drawn] ({DOTA}-K(Butanoyl(4-(4-MePh)))[Ahx]EEEEEEAYGW[Nle]DF-NH2): “at least 48 hours”.
